Assay results as given in the Immune Epitope Database (IEDB).

What was measured:
HLA-A*26:01 [1] = assay: IEDB peptide-MHC binding, purified MHC/competitive/radioactivity; filed as Kd, often an IC50 or EC50 that approximates it; ≥ and ≤ were set here for values at or beyond the usual limits of such assays
HLA-A*30:02 = assay: as above
HLA-A*01:01 [2] = assay: as above
HLA-A*32:01 = assay: as above
HLA-A*30:01 = assay: as above
HLA-A*29:02 = assay: as above
HLA-A*11:01 [3] = assay: IEDB peptide-MHC binding, purified MHC/direct/fluorescence; filed as Kd, often an IC50 or EC50 that approximates it; ≥ and ≤ were set here for values at or beyond the usual limits of such assays
HLA-B*58:01 = assay: as above; conditions: source organism: SARS-CoV1
HLA-B*51:01 = assay: IEDB peptide-MHC binding, purified MHC/competitive/radioactivity; filed as Kd, often an IC50 or EC50 that approximates it; ≥ and ≤ were set here for values at or beyond the usual limits of such assays
HLA-B*08:01 [4] = assay: as above
HLA-A*11:01 [5] = assay: as above; conditions: source organism: Dengue virus 4 Philippines/H241/1956
HLA-A*03:01 [6] = assay: as above; conditions: source organism: Dengue virus 4 Philippines/H241/1956
HLA-A*69:01 = assay: IEDB peptide-MHC binding, purified MHC/direct/fluorescence; filed as Kd, often an IC50 or EC50 that approximates it; ≥ and ≤ were set here for values at or beyond the usual limits of such assays
HLA-A*02:01 [7] = assay: as above
HLA-B*44:02 = assay: IEDB peptide-MHC binding, purified MHC/competitive/radioactivity; filed as Kd, often an IC50 or EC50 that approximates it; ≥ and ≤ were set here for values at or beyond the usual limits of such assays
HLA-A*03:01 [8] = assay: IEDB peptide-MHC binding, purified MHC/direct/fluorescence; filed as Kd, often an IC50 or EC50 that approximates it; ≥ and ≤ were set here for values at or beyond the usual limits of such assays
HLA-A*31:01 = assay: as above; conditions: source organism: Entamoeba histolytica HM-1:IMSS
HLA-B*08:01 [9] = assay: as above
HLA-A*02:01 [10] = assay: IEDB peptide-MHC binding, purified MHC/competitive/fluorescence; filed as Kd, often an IC50 or EC50 that approximates it; ≥ and ≤ were set here for values at or beyond the usual limits of such assays
HLA-A*02:03 = assay: IEDB peptide-MHC binding, purified MHC/competitive/radioactivity; filed as Kd, often an IC50 or EC50 that approximates it; ≥ and ≤ were set here for values at or beyond the usual limits of such assays; conditions: source organism: Dengue virus 4 Philippines/H241/1956
HLA-A*01:01 [11] = assay: IEDB peptide-MHC binding, purified MHC/direct/fluorescence; filed as Kd, often an IC50 or EC50 that approximates it; ≥ and ≤ were set here for values at or beyond the usual limits of such assays; conditions: source organism: Homo sapiens
HLA-B*27:05 = assay: as above; conditions: source organism: Homo sapiens
HLA-A*26:01 [12] = assay: as above
[13] = source organism: Mammarenavirus juninense
[14] = source organism: Dengue virus 1 Brazil/97-11/1997
[15] = source organism: Dengue virus 2 Jamaica/1409/1983
[16] = source organism: Vaccinia virus WR
[17] = source organism: Dengue virus 4 Philippines/H241/1956
[18] = source organism: Dengue virus 3 Martinique/1243/1999
[19] = source organism: Pseudomonas aeruginosa
[20] = source organism: Dengue virus 4 Singapore/8976/1995
[21] = source organism: Lymphocytic choriomeningitis virus (strain Armstrong)
[22] = source organism: Lymphocytic choriomeningitis virus (strain WE)
[23] = source organism: Giardia lamblia ATCC 50803
[24] = source organism: Mammarenavirus machupoense

In the case of GVLEEQGSFY, the Kd (HLA-A*26:01 [1]; [13]) is reported as 223 nM, the Kd (HLA-A*30:02; [13]) is reported as 243 nM and the Kd (HLA-A*01:01 [2]; [13]) is reported as 1640 nM. The Kd (HLA-A*32:01; [13]) was no less than 69900 nM, the Kd (HLA-A*30:01; [13]) was no less than 39600 nM and the Kd (HLA-A*29:02; [13]) was 1020 nM.
KTTFKPNTW gave a Kd (HLA-A*11:01 [3]; source organism: SARS-CoV1) of no less than 32600 nM and a Kd (HLA-B*58:01) of 157 nM.
Sequence FDLCEGTTVV has a Kd (HLA-B*51:01; [14]) of 10500 nM.
For EPPFGDSYI, the Kd (HLA-B*51:01; [15]) was 349 nM.
Sequence MFGTRKNSF has a Kd (HLA-B*08:01 [4]; [16]) of 2.04 nM.
Sequence MTLWYMWQVK has a Kd (HLA-A*11:01 [5]) of 6.51 nM, a Kd (HLA-A*03:01 [6]) of 7.82 nM and a Kd (HLA-A*32:01; [17]) of 927 nM.
With EQMQRKHGGM the Kd (HLA-B*08:01 [4]; [14]) was 86 nM.
Sequence LAIPPTAGVL has a Kd (HLA-B*08:01 [4]; [18]) of 11900 nM.
For DMYDQQLSV, the Kd (HLA-A*69:01; [19]) was 32 nM and the Kd (HLA-A*02:01 [7]; [19]) was 262 nM.
Sequence MEIRPISEK has a Kd (HLA-B*44:02; [18]) of 1260 nM.
With AICSAVPTEW the Kd (HLA-B*44:02; [17]) was 743 nM.
VISNLVLSY showed a Kd (HLA-A*32:01; [16]) of 808 nM.
Work on ANKWYFAPR yielded a Kd (HLA-A*03:01 [8]; source organism: Entamoeba histolytica HM-1:IMSS) of no less than 20000 nM and a Kd (HLA-A*31:01) of 1.4 nM.
With ADMGCVVSW the Kd (HLA-A*32:01; [20]) was 415 nM and the Kd (HLA-B*44:02; [20]) was 10.6 nM.
In the case of RREEEEAGVL, the Kd (HLA-B*08:01 [4]; [15]) is reported as 2160 nM.
Work on WLHRGPKEF yielded a Kd (HLA-B*08:01 [9]; source organism: West Nile virus) of 2510 nM.
LQFGFGWFSY gave a Kd (HLA-A*26:01 [1]; [21]) of 473 nM, a Kd (HLA-A*30:02; [21]) of 4.99 nM and a Kd (HLA-A*01:01 [2]; [21]) of no less than 70400 nM. For the same sequence, the Kd (HLA-A*32:01; [21]) was 7.32 nM, the Kd (HLA-A*30:01; [21]) was 5210 nM and the Kd (HLA-A*29:02; [21]) was 19.6 nM.
Work on FTFKRTSGSSV yielded a Kd (HLA-A*02:01 [10]; source organism: Influenza A virus H3N2) of 930 nM.
RIIMLNFSI showed a Kd (HLA-A*32:01; source organism: Vaccinia virus Copenhagen) of no less than 77800 nM.
ALNELPESL was tested, and the Kd (HLA-A*02:03) was 94.1 nM and the Kd (HLA-A*32:01; [17]) was 1400 nM.
Sequence LTDNDDILM has a Kd (HLA-A*26:01 [1]; [22]) of no less than 47400 nM, a Kd (HLA-A*30:02; [22]) of 587 nM and a Kd (HLA-A*01:01 [2]; [22]) of 21.3 nM. The Kd (HLA-A*32:01; [22]) was 12600 nM, the Kd (HLA-A*30:01; [22]) was 19200 nM and the Kd (HLA-A*29:02; [22]) was 9140 nM.
IIIPFIAYFV showed a Kd (HLA-A*02:01 [10]; source organism: Variola virus) of 50.5 nM.
In the case of KLGNLLLLI, the Kd (HLA-A*32:01; [16]) is reported as 0.716 nM.
Work on FKGKTVWFVP yielded a Kd (HLA-A*32:01; [15]) of no less than 69900 nM.
For FLIGVYQQY, the Kd (HLA-A*69:01; [23]) was no less than 20000 nM and the Kd (HLA-A*02:01 [7]; [23]) was no less than 20000 nM.
MPIRYQTTA was tested, and the Kd (HLA-B*08:01 [4]; [14]) was 201 nM and the Kd (HLA-B*51:01; [14]) was 1690 nM.
ETNDLVTNV showed a Kd (HLA-A*02:01 [10]; source organism: Variola virus) of 3240 nM.
In the case of SIYRMSYQF, the Kd (HLA-A*32:01; [16]) is reported as 0.798 nM.
With IPPEKCDTL the Kd (HLA-B*51:01; source organism: Dengue virus 2 16681-PDK53) was no less than 77400 nM.
Sequence NLIIHTAAL has a Kd (HLA-B*08:01 [4]; [16]) of 1.55 nM.
With RLPNLFHIL the Kd (HLA-B*08:01 [4]; [16]) was 68.5 nM.
With MTCGQPLSL the Kd (HLA-A*32:01; [16]) was 5.56 nM.
ILHLILWIL showed a Kd (HLA-A*02:01 [10]; source organism: Influenza A virus (A/Memphis/1/1978(H1N1))) of 6000 nM.
Sequence GRIDKPILK has a Kd (HLA-A*11:01 [3]; source organism: Homo sapiens) of 8150 nM, a Kd (HLA-A*03:01 [8]; source organism: Homo sapiens) of 13500 nM and a Kd (HLA-A*01:01 [11]) of no less than 53500 nM. The Kd (HLA-B*27:05) was 790 nM.
Work on CMLNNSFYY yielded a Kd (HLA-A*26:01 [1]; [24]) of 958 nM, a Kd (HLA-A*30:02; [24]) of 5.46 nM and a Kd (HLA-A*01:01 [2]; [24]) of 1780 nM. The Kd (HLA-A*32:01; [24]) was 10500 nM, the Kd (HLA-A*30:01; [24]) was 556 nM and the Kd (HLA-A*29:02; [24]) was 1.33 nM.
EIQLKIDKL was tested, and the Kd (HLA-A*02:01 [10]; source organism: Variola virus) was 3590 nM.
RKKARNTPF gave a Kd (HLA-B*08:01 [4]; source organism: Dengue virus 2 Peru/IQT2913/1996) of 82.7 nM.
For DFIGFGAAY, the Kd (HLA-A*26:01 [12]; source organism: Mycobacterium tuberculosis variant bovis) was 3.2 nM.
For RTISESNTI, the Kd (HLA-A*32:01; [16]) was 960 nM.
DTIYPTAIY showed a Kd (HLA-A*26:01 [12]; source organism: Mycobacterium tuberculosis) of 3 nM.
Work on FSRGNSLSGV yielded a Kd (HLA-B*51:01; [15]) of 11100 nM.
In the case of RPKIKTNDI, the Kd (HLA-B*08:01 [4]; [16]) is reported as 2.11 nM.
IMRRRQYVL gave a Kd (HLA-B*08:01 [9]; [23]) of 4 nM.
